The record followed here is paper PMC9295563, “A Reduced F420-Dependent Nitrite Reductase in an Anaerobic Methanotrophic Archaeon” (Journal of Bacteriology, 2022).

One data set deals with T1, O=S(O)O.
T1 construct: full-length two-domain protein (Fsr-N 1-341, Fsr-C 356-642); expressed from pDS701 in Methanosarcina acetivorans WWM60; F420-Sepharose purified, no tag mentioned; siroheme, FAD, about four [Fe4-S4] per subunit
As to the kind of experiment: purified protein. The format is biochemical, uncultured ANME-2c archaeon. As to conditions: 408 μM reduced methyl viologen, 10-500 μM sulfite, with DTT, pH 7 phosphate, anaerobic, kcat in electrons transferred per subunit.

In data set [1] the test system is CN1C=C[C](c2cc[n+](C)cc2)C=C1. Nature of the data set: purified protein. In kind it is biochemical, uncultured ANME-2c archaeon. As to conditions: pH 7.0.
For another data set, the system named is O=NO. Nature of the data set: purified protein. As to conditions: 40 μM F420H2, 2-100 μM nitrite, 0.5 mM DTT, pH 7 phosphate, anaerobic, kcat in electrons transferred per subunit.
For data set [2], the target named is T2, ANME2c-FsrII-6D (uncultured archaeon, UniProt Z9BHN8L6W9). Nature of the data set: inhibition of F420H2-dependent nitrite reduction, F420H2 oxidation at […] nm. In kind it is biochemical, uncultured ANME-2c archaeon. Also noted: gene fsr; full-length two-domain protein (Fsr-N 1-341, Fsr-C 356-642); expressed from pDS701 in Methanosarcina acetivorans WWM60; F420-Sepharose purified, no tag mentioned; siroheme, FAD, about four [Fe4-S4] per subunit. As to conditions: read-out: apparent Ki.
T2 sequence (Z9BHN8L6W9 1-642): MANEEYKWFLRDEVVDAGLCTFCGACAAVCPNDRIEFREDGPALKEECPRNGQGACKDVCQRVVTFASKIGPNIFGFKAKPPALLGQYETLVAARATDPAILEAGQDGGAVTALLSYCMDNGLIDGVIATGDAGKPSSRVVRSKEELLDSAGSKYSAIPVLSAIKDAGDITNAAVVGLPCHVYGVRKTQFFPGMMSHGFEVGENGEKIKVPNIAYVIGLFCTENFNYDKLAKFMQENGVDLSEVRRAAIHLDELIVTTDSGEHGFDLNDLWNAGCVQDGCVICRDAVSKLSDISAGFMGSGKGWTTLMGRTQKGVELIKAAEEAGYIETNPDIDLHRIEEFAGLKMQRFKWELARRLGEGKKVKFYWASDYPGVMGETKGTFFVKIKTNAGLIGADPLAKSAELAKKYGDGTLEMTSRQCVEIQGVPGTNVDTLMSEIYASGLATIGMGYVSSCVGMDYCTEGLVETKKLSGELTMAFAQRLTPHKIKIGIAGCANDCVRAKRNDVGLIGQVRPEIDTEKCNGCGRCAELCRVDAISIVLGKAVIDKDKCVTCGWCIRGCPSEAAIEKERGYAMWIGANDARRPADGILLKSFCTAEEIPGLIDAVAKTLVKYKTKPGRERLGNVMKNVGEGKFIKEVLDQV

For data set [3], the target named is T2, ANME2c-FsrII-6D. As to the kind of experiment: F420H2 oxidation at […] nm. Also noted: gene fsr. As to conditions: read-out: Km (μM) for the varied substrate; 500 μM nitrite, 1-80 μM F420H2, 0.5 mM DTT, pH 7 phosphate, anaerobic; kcat in electrons transferred per subunit.

Take ANME2c-FsrII-6D (uncultured archaeon): in the data set on O=S(O)O, the Michaelis constant (Km) was 129 ± 20 µM, the turnover number (kcat) stood at 1.07 ± 0.0667 s⁻¹ and the kcat/Km was 0.5 ± 0.1 (HSO3^−). Also, in data set [1], the Km worked out at 137 ± 26 µM and the kcat/Km is 0.5 ± 0.1 (MV^·+). Further, in the data set on O=NO, the Km was determined as 5 ± 1 µM, the turnover number (kcat) amounted to 0.3 ± 0.0167 s⁻¹ and the kcat/Km is recorded as 4 ± 1 (NO2^−).
Turning to `O=S(O)O` [sulfite], the Ki on ANME2c-FsrII-6D [2] was determined as 130 ± 86 µM.
Consider F420H2, for which, at ANME2c-FsrII-6D [3], the Km stood at 14 ± 2 µM.

One may read the Km as the concentration of substrate that gives half-maximal velocity. Usually kcat stands for the number of substrate molecules converted per active site and unit of time at saturation.
